Publication PMC10786891, “Massively parallel profiling of RNA-targeting CRISPR-Cas13d”
Positions count from the first letter of the chain named. Names and notes keep the numbering of the source.

T1: EsCas13d, nuclease-dead (Eubacterium siraeum, UniProt B0MS50, R295A;H300A;R849A;H854A)
T1 sequence: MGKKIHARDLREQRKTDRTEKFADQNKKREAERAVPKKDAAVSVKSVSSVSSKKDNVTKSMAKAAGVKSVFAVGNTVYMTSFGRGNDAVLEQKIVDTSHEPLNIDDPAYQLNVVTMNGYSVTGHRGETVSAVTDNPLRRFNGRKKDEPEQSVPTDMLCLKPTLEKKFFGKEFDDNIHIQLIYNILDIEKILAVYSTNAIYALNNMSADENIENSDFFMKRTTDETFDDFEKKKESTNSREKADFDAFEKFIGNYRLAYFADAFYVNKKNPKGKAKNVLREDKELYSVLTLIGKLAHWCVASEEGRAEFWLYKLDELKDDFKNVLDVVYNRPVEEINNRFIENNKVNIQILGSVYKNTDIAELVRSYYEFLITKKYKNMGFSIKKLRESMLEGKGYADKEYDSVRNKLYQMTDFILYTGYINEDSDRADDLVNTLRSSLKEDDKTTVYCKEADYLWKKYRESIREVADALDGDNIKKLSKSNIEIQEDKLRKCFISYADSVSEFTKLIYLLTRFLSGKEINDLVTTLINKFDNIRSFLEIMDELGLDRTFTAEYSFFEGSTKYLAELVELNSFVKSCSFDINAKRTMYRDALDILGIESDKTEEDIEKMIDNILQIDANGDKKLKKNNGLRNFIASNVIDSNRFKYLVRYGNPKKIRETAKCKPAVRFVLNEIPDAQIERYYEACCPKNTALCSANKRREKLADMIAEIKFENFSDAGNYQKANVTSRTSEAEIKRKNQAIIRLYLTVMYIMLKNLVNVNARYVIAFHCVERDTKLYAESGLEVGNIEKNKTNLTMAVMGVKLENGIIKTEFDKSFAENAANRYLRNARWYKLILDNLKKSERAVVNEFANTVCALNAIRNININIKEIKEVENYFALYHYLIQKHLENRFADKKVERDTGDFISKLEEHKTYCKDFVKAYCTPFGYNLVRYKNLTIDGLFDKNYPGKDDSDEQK

B1: target 1 insC 3' of 17,insG 3' of 9 (mixed)
RNA 1: CACCCGUGCAAAAAUGCAGGGGUCUAAAACUGAGCGGAUAACCUCUCUAUGG
RNA 2: GGGAAUGGAUCCACAUCUACGAAUUCGUACCAUAGCAGAGGUUAGUCCGCUCACCGAGAUCGGAAGAGCACACGU
B2: target 1 A9U,G12C (mixed)
RNA 1: B1 RNA 1
RNA 2: GGGAAUGGAUCCACAUCUACGAAUUCGUACCAUAGAGAGCUUUUCCGCUCACCGAGAUCGGAAGAGCACACGU
B3: target 1 C7U,A9C (mixed)
RNA 1: B1 RNA 1
RNA 2: B2 RNA 2 with C40G, U43C, C45U
B4: target 1 G5U,G15C (mixed)
RNA 1: B1 RNA 1
RNA 2: B2 RNA 2 with G37C, C40G, U43A, G47U
B5: target 1 A16U,G17C (mixed)
RNA 1: B1 RNA 1
RNA 2: B2 RNA 2 with G35C, A36U, C40G, U43A
B6: target 1 insC 3' of 3,insU 3' of 2 (mixed)
RNA 1: B1 RNA 1
RNA 2: GGGAAUGGAUCCACAUCUACGAAUUCGUACCAUAGAGAGGUUAUCCGCUCCUACCGAGAUCGGAAGAGCACACGU
B7: target 1 insU 3' of 9,insU 3' of 7 (mixed)
RNA 1: B1 RNA 1
RNA 2: B6 RNA 2 with C45U, G47U, U49G, C51U, U52C
B8: target 1 insA 3' of 19,insC 3' of 1 (mixed)
RNA 1: B1 RNA 1
RNA 2: GGGAAUGGAUCCACAUCUACGAAUUCGUACCAUAAGAGAGGUUAUCCGCUCACCCGAGAUCGGAAGAGCACACGU
B9: target 1 del1,del5 (mixed)
RNA 1: B1 RNA 1
RNA 2: GGGAAUGGAUCCACAUCUACGAAUUCGUACCAUAGAGAGGUUAUCCCUCCCGAGAUCGGAAGAGCACACGU
B10: target 1 A9U,C21A (mixed)
RNA 1: B1 RNA 1
RNA 2: B2 RNA 2 with C31A, C40G
B11: target 1 insC 3' of 20,insA 3' of 8 (mixed)
RNA 1: B1 RNA 1
RNA 2: B1 RNA 2 with U33C, A34U, G35A, C36G, G45U, U46A
B12: target 1 insA 3' of 19,insG 3' of 1 (mixed)
RNA 1: B1 RNA 1
RNA 2: B8 RNA 2 with C53G
B13: target 1 insU 3' of 18,insG 3' of 10 (mixed)
RNA 1: B1 RNA 1
RNA 2: B1 RNA 2 with G35U, C36G, A44G, G45A
B14: target 1 insC 3' of 13,insG 3' of 6 (mixed)
RNA 1: B1 RNA 1
RNA 2: B1 RNA 2 with C36A, A37G, G38A, A39G, G40C, G45U, U46C, C48G
B15: target 1 insA 3' of 19,insU 3' of 1 (mixed)
RNA 1: B1 RNA 1
RNA 2: B8 RNA 2 with C53U
B16: target 1 del13,del15 (mixed)
RNA 1: B1 RNA 1
RNA 2: GGGAAUGGAUCCACAUCUACGAAUUCGUACCAUAGAAGUUAUCCGCUCACCGAGAUCGGAAGAGCACACGU
B17: target 1 insA 3' of 21,insG 3' of 7 (mixed)
RNA 1: B1 RNA 1
RNA 2: B1 RNA 2 with U33A, A34U, G35A, C36G, G45U, U46C, C47G
B18: target 1 insA 3' of 17,insA 3' of 7 (mixed)
RNA 1: B1 RNA 1
RNA 2: B1 RNA 2 with C36A, G45U, U46C, C47A
B19: target 1 insA 3' of 19,insA 3' of 2 (mixed)
RNA 1: B1 RNA 1
RNA 2: B8 RNA 2 with C53A
B20: target 1 A14G,C22A (mixed)
RNA 1: B1 RNA 1
RNA 2: B2 RNA 2 with C30A, A38G, C40G, U43A
B21: target 1 insC 3' of 18,insA 3' of 12 (mixed)
RNA 1: B1 RNA 1
RNA 2: B1 RNA 2 with G35C, C36G, U42A, A44U, G45A
B22: target 1 U8G,A18U (mixed)
RNA 1: B1 RNA 1
RNA 2: B2 RNA 2 with A34U, C40G, U43A, U44G
B23: target 1 insA 3' of 22,insG 3' of 21 (mixed)
RNA 1: B1 RNA 1
RNA 2: GGGAAUGGAUCCACAUCUACGAAUUCGUACACGAUAGAGAGGUUAUCCGCUCACCGAGAUCGGAAGAGCACACGU
B24: target 1 insA 3' of 21,insU 3' of 21 (mixed)
RNA 1: B1 RNA 1
RNA 2: B23 RNA 2 with A31C, C32A, G33U
B25: target 1 insU 3' of 20,insC 3' of 5 (mixed)
RNA 1: B1 RNA 1
RNA 2: B8 RNA 2 with A34U, U50C, C51U, A52C, C53A
B26: target 1 U8A,U10A (mixed)
RNA 1: B1 RNA 1
RNA 2: B2 RNA 2 with C40G, U42A, U43A, U44A
B27: target 1 U8A,G13A (mixed)
RNA 1: B1 RNA 1
RNA 2: B2 RNA 2 with G39A, C40G, U43A, U44A
B28: target 1 insG 3' of 18,insC 3' of 3 (mixed)
RNA 1: B1 RNA 1
RNA 2: B8 RNA 2 with A35G, A52C, C53A
B29: target 1 insA 3' of 11,insU 3' of 9 (mixed)
RNA 1: B1 RNA 1
RNA 2: B1 RNA 2 with C36A, A37G, G38A, A39G, G41U, U42A, G45U
B30: target 1 C4U,G5A (mixed)
RNA 1: B1 RNA 1
RNA 2: B2 RNA 2 with C40G, U43A, G47A, C48U
B31: target 1 insC 3' of 14,insA 3' of 6 (mixed)
RNA 1: B1 RNA 1
RNA 2: B1 RNA 2 with C36A, A37G, G38A, A39C, G45U, U46C, C48A
B32: target 1 insG 3' of 16,insC 3' of 10 (mixed)
RNA 1: B1 RNA 1
RNA 2: B1 RNA 2 with C36A, A37G, A44C, G45A
B33: target 1 C4A,A14U (mixed)
RNA 1: B1 RNA 1
RNA 2: B2 RNA 2 with A38U, C40G, U43A, C48A
B34: target 1 A16G,U19C (mixed)
RNA 1: B1 RNA 1
RNA 2: B2 RNA 2 with U33C, A36G, C40G, U43A

Target: T1, EsCas13d, nuclease-dead
Experiment: crRNA (strand 1, pre-loaded); Mg2+; 40 mM Tris-HCl pH 7.5, 150 mM NaCl, 6 mM MgCl2, 1 mM DTT, 0.1% Tween-20, 0.2 mg/ml BSA; 25 C; 10 min per concentration, then washed
Settings: tags: His6-TwinStrep-SUMO cleaved; N-terminal SNAP kept (SNAP-Surface 488); label: 3' end held by stalled T7 RNA polymerase

Binder | Kd
B1 | 35 ± 6 nM
B2 | ~46 nM
B3 | 8.9 ± 0.4 nM
B4 | 46 ± 9 nM
B5 | 87 ± 23 nM
B6 | 37 ± 5 nM
B7 | 25.4 ± 1.3 nM
B8 | 18.6 ± 2.4 nM
B9 | 20.4 ± 1.2 nM
B10 | 35.8 ± 2.3 nM
B11 | 9.6 ± 0.5 nM
B12 | 20 ± 1.3 nM
B13 | 68 ± 22 nM
B14 | 14.6 ± 1.6 nM
B15 | 20 ± 1.7 nM
B16 | 30 ± 5 nM
B17 | 14.9 ± 0.6 nM

Binder | Kd
B18 | 10.4 ± 0.5 nM
B19 | 19.9 ± 2.1 nM
B20 | 40 ± 4 nM
B21 | 80 ± 22 nM
B22 | 80 ± 19 nM
B23 | 43 ± 6 nM
B24 | 9.1 ± 0.5 nM
B25 | 36 ± 10 nM
B26 | 12.5 ± 0.7 nM
B27 | 15 ± 0.7 nM
B28 | 80 ± 9 nM
B29 | 27.8 ± 2.2 nM
B30 | 14.2 ± 1.5 nM
B31 | 56 ± 12 nM
B32 | 40 ± 9 nM
B33 | ~60 nM
B34 | 78 ± 33 nM
